Experimental data taken from article PMC13225219.

Molecular target: GST-Drak (435-532) (Drosophila melanogaster) (UniProt Q0KHT7)
Test: pull-down; GST-Drak on glutathione agarose; 100 µl of 0.2-10 µM Filamin fragment, 20 min on ice in 20 mM Tris-HCl pH 7.5, 100 mM NaCl, 1 mM DTT; washed with PBS; stain-free SDS-PAGE, Filamin to Drak band ratio

Sequence of UniProt Q0KHT7 (Q0KHT7 435-532): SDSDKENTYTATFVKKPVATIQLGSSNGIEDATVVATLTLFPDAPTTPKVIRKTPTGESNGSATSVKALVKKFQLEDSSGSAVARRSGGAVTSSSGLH

fold bound against the wild-type Filamin fragment: 10 fold
Substance: Filamin-open (five-domain Drosophila Filamin fragment Cher15-19openMSR) (domain or fragment)
